Measured values: article PMC7865891

Assays:
[1] = test system: β-conglutin (lupin (species not stated)); assay: MST; conditions: 0.05% Tween-20, 25 C, Hill EC50 fit, PBS (10 mM phosphate, 135 mM NaCl, 2.7 mM KCl, pH 7.4) + 1.5 mM MgCl2, MST +0.05% Tween-20, 25 C (20 mM KCl for TT derivatives), BLI +0.1% Tween-20, 30 C, SPR …
[2] = test system: β-conglutin (lupin (species not stated)); assay: SPR; conditions: 1:1 kinetic model, protein immobilized, PBS (10 mM phosphate, 135 mM NaCl, 2.7 mM KCl, pH 7.4) + 1.5 mM MgCl2, MST +0.05% Tween-20, 25 C (20 mM KCl for TT derivatives), BLI +0.1% Tween-20, 30 C
[3] = test system: β-conglutin (lupin (species not stated)); assay: BLI; conditions: 2:1 heterogeneous model, 30 C, 0.1% Tween-20, 5' TEG spacer, PBS (10 mM phosphate, 135 mM NaCl, 2.7 mM KCl, pH 7.4) + 1.5 mM MgCl2, MST +0.05% Tween-20, 25 C (20 mM KCl for TT derivatives), BLI +0.1% Tween-20, 30 C, SPR …

Row | Sequence | Kd [2] [nM] | Kd ([1]; 20 mM KCl) [nM] | other results
1 | GGTGGGGGTGG [Cy5-11-mer] | – | – | Kd ([1]; binding buffer): 1.05 nM
2 | GGTGGGGGTGGTT [11-mer-TT] | 84.9 | – | –
3 | GGTGGGGGTGGTT [Cy5-11-mer-TT] | – | 2.59 | –
4 | TTGGTGGGGGTGG [Cy5-TT-11-mer] | – | 1.88 | –
5 | TTGGTGGGGGTGG [TT-11-mer] | 7.28 | – | –
6 | TTGGTGGGGGTGGTT [Cy5-TT-11-mer-TT] | – | 2.71 | –
7 | TTGGTGGGGGTGGTT [TT-11-mer-TT] | 53.7 | – | –
8 | TTTTTTTTTTTTTTTGGTGGGGGTGG [Biotin-TEG-T15-11-mer] | – | – | Kd ([3]; first KD): 6.95 nM; Kd ([3]; second KD): 23.3 nM
